Reference: US20250304666A1 (ALCHEMAB THERAPEUTICS, published 2025)

T1: reduced CFHR1 (UniProt Q03591 19-330, limits assumed)
T1 sequence (looked up): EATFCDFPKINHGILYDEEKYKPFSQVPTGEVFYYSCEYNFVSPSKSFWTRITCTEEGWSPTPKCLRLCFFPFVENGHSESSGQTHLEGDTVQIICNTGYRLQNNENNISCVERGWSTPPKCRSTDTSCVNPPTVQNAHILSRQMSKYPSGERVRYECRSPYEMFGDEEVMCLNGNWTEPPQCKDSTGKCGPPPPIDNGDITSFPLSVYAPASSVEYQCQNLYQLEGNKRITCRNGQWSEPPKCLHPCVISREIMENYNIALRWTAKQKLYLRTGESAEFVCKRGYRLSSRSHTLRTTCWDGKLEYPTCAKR

T2: reduced CFHR2 (UniProt P36980 19-270, limits assumed)
T2 sequence (looked up): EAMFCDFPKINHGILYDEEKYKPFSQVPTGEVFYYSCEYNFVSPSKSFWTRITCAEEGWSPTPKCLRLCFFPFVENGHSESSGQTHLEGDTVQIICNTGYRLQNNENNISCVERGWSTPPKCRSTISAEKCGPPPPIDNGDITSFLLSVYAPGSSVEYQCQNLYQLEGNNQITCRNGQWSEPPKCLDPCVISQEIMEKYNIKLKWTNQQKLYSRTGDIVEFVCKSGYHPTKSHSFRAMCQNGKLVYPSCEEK

T3: reduced CFHR3 (UniProt Q02985 19-330, limits assumed)
T3 sequence (looked up): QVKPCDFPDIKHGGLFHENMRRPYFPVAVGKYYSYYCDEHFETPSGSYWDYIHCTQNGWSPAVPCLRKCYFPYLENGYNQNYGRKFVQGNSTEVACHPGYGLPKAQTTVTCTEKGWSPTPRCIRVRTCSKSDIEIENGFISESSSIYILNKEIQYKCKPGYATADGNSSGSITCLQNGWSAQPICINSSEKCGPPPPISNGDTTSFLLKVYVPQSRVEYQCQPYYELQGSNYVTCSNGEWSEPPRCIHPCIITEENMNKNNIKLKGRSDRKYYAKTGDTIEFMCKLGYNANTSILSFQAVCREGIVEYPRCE

T4: reduced CFHR5 (UniProt Q9BXR6 19-569, limits assumed)
T4 sequence (looked up): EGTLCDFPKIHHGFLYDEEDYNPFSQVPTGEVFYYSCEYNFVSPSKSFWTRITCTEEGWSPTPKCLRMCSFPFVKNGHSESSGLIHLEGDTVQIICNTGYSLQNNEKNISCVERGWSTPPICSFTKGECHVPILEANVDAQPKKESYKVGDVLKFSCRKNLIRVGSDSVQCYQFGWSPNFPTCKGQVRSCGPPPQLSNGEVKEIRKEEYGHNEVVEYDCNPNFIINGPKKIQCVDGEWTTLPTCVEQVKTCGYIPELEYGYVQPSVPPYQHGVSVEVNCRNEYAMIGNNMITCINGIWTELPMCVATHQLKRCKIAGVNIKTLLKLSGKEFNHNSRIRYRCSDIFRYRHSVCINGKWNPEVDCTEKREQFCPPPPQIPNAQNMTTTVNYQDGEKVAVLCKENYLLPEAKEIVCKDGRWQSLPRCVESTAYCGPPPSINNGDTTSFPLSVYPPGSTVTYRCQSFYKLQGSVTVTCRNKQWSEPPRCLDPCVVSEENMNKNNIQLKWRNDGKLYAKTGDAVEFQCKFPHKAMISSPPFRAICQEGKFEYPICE

T5: non-reduced CFHR1
T5 construct: also called CFHR1 (NON-REDUCED)
T5 chain: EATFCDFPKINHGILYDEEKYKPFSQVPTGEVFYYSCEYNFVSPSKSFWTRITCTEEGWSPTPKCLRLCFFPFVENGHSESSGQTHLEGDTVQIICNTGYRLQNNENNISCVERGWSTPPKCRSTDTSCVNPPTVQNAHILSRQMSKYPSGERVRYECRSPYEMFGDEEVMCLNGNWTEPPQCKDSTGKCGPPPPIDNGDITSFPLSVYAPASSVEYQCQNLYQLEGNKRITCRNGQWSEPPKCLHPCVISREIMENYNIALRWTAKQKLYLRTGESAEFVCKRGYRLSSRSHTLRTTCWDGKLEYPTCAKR

T6: non-reduced CFHR2
T6 construct: also called CFHR2 (NON-REDUCED)
T6 chain: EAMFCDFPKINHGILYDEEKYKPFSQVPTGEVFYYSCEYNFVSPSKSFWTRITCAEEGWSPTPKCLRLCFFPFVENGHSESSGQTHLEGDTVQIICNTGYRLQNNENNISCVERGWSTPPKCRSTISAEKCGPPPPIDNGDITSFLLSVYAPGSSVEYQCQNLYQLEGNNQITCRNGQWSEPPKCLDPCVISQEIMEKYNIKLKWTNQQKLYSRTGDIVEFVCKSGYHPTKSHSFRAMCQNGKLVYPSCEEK

T7: non-reduced CFHR3
T7 construct: also called CFHR3 (NON-REDUCED)
T7 chain: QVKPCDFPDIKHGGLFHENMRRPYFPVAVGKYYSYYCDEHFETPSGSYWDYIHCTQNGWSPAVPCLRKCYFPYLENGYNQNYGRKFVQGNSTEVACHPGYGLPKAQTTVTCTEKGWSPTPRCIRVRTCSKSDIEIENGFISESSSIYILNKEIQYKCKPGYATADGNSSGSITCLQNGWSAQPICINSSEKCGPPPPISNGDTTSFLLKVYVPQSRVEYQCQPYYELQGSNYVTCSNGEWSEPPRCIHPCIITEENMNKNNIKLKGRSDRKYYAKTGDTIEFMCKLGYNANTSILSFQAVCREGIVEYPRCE

T8: non-reduced CFHR5
T8 construct: also called CFHR5 (NON-REDUCED)
T8 chain: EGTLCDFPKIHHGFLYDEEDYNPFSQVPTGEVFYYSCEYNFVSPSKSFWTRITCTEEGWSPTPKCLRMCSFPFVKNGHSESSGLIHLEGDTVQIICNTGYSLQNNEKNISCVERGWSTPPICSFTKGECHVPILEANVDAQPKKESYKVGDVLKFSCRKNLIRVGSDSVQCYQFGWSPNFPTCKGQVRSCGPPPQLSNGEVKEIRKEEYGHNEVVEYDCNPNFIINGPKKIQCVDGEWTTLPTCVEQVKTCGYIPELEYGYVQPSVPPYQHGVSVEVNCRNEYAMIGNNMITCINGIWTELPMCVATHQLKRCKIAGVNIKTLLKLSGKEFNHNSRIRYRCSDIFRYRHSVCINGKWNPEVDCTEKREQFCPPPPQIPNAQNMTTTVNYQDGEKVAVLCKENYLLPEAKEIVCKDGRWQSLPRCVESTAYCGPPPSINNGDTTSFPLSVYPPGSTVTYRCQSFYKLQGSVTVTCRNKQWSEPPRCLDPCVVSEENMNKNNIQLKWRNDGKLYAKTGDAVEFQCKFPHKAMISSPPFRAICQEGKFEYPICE

T9: reduced CFH (Homo sapiens (Human), UniProt P08603 860-1231, limits assumed)
T9 construct: also called CFH (reduced)
T9 sequence: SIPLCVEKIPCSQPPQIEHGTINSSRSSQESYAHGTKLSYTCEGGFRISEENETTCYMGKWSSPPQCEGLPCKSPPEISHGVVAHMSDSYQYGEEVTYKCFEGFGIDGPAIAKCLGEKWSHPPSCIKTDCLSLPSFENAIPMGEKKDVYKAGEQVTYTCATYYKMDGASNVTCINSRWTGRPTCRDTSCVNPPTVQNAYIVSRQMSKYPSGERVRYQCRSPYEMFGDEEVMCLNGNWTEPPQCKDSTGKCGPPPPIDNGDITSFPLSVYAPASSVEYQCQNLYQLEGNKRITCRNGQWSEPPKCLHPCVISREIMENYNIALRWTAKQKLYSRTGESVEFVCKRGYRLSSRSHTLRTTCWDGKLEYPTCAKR

T10: non-reduced CFH
T10 construct: also called CFH (NON-REDUCED)
T10 chain: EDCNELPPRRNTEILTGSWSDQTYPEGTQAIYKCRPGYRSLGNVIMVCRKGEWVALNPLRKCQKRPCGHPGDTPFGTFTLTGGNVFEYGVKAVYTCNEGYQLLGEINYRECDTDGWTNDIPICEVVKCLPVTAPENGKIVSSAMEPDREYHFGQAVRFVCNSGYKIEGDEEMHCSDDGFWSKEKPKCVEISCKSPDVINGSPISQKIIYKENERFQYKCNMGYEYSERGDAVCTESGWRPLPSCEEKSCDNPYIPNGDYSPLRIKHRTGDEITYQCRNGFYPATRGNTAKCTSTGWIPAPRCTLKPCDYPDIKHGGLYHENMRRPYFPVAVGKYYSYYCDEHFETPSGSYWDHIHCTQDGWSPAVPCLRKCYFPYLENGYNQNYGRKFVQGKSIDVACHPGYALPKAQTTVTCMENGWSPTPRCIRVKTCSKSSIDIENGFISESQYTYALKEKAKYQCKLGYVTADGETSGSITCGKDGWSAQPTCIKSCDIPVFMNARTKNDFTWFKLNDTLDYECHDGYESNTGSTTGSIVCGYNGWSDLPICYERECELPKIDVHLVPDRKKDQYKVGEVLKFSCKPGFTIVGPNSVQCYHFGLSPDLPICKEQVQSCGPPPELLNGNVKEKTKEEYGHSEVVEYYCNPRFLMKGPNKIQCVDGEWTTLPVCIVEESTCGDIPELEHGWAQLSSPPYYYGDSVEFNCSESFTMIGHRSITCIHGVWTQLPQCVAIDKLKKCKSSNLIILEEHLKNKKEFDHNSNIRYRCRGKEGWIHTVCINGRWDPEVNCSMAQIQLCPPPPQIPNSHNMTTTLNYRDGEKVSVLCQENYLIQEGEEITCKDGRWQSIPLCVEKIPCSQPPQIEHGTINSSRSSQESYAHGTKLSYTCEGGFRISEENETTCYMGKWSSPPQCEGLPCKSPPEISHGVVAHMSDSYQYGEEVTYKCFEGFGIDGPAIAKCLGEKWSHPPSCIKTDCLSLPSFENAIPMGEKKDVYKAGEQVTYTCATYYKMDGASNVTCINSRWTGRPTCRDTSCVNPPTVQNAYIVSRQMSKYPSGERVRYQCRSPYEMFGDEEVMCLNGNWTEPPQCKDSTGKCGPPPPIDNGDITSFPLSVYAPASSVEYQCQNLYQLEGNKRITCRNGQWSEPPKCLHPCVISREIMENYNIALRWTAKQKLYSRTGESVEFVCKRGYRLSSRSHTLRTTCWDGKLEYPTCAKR


Key:
reduced CFHR1 = target: T1, reduced CFHR1; experiment: ELISA, reduced antigen
reduced CFHR2 = target: T2, reduced CFHR2; experiment: ELISA, reduced antigen
reduced CFHR3 [1] = target: T3, reduced CFHR3; experiment: ELISA, reduced antigen
reduced CFHR5 [2] = target: T4, reduced CFHR5; experiment: ELISA, reduced antigen
non-reduced CFHR1 = target: T5, non-reduced CFHR1; experiment: ELISA, non-reduced antigen
non-reduced CFHR2 = target: T6, non-reduced CFHR2; experiment: ELISA, non-reduced antigen
non-reduced CFHR3 = target: T7, non-reduced CFHR3; experiment: ELISA, non-reduced antigen
non-reduced CFHR4 = target: T11, non-reduced CFHR4; experiment: ELISA, non-reduced antigen
T11 construct: not reduced; also called CFHR4 (NON-REDUCED)

non-reduced CFHR5 = target: T8, non-reduced CFHR5; experiment: ELISA, non-reduced antigen
reduced CFHR3 [3] = target: T3, reduced CFHR3; experiment: ELISA on reduced CFHR3
reduced CFHR5 [4] = target: T4, reduced CFHR5; experiment: ELISA on reduced CFHR5
reduced CFH [5] = target: T9, reduced CFH; experiment: ELISA, reduced antigen
non-reduced CFH = target: T10, non-reduced CFH; experiment: ELISA, non-reduced antigen
reduced CFH [6] = target: T9, reduced CFH; experiment: ELISA on reduced CFH after heating the mAb (70 C, 1 h, as Figure 16)

| fold change vs isotype at 1 ug/ml (reduced CFHR1) [fold] | fold change vs isotype at 1 ug/ml (reduced CFHR2) [fold] | fold change vs isotype at 1 ug/ml (reduced CFHR3 [1]) [fold] | fold change vs isotype at 1 ug/ml (reduced CFHR5 [2]) [fold] | fold change vs isotype at 1 ug/ml (non-reduced CFHR1) [fold] | fold change vs isotype at 1 ug/ml (non-reduced CFHR2) [fold] | binding result (non-reduced CFHR3) | fold change vs isotype at 1 ug/ml (non-reduced CFHR3) [fold] | fold change vs isotype at 1 ug/ml (non-reduced CFHR4) [fold] | binding result (non-reduced CFHR5) | fold change vs isotype at 1 ug/ml (non-reduced CFHR5) [fold] | binding result (reduced CFHR3 [3]) | binding result (reduced CFHR5 [4]) | fold change vs isotype at 1 ug/ml (reduced CFH [5]) [fold] | fold change vs isotype at 1 ug/ml (non-reduced CFH) [fold] | Harsh Heat challenge ELISA value (reduced CFH [6]) | Binder |
| --- | --- | --- | --- | --- | --- | --- | --- | --- | --- | --- | --- | --- | --- | --- | --- | --- |
| 23 | 11.3 | 1 | 1 | 13 | 7 | no binding (tested: 1 ug/ml) | 1 | 1 | no binding (tested: 1 ug/ml) | 1 | no binding (tested: 100 ug/ml) | no binding (tested: 100 ug/ml) |  |  |  | ATL_0005155 (antibody, human IgG1, kappa, V domains shown, one of the 10 lead mAbs; IgG1; also called ATL5155; ATL_0005155-001) VH: QVQLVESGGGVVQPGRSLRLSCAASGFTFSNYGMHWVRQAPGKGLEWVAVTSFDGKTKYYADSVKGRFTISRDNSKNTLYLQMNSLRAEDTAVYYCAKGGATAAVFDSWGQGTLVTVSS VL: not shown |
| 24.4 | 10.3 | 1 | 1 | 16.6 | 7.7 |  | 1 |  |  | 0.9 |  |  | 18.4 | 9.8 | 0.58 | ATL_0004894 (antibody, human IgG1, kappa, V domains shown, germlined ATL4717, IgG1; also called ATL4894; 4894 IgG) VH: QVQLVESGGGVVQPGRSLRLSCAASGFTFSIYGMHWVRQAPGKGLEWVAVMSFDGKTKYYADSVKGRFTISRDNSKNTLYLQMNSLRAEDTAVYYCAKGGATAAVFDSWGQGTLVTVSS VL: not shown |
